Assay [1] has as its target T1, p97/valosin-containing protein (human, UniProt P55072 2-806).
T1 construct: Endogenous protein detected by immunoblot in immunoprecipitates; also called VCP; VCP/p97
The experiment in a line: co-immunoprecipitation from bronchial brushings of ΔF508 CF subjects (IP gp78, immunoblot VCP). The method, then:
(§1) Cells were lysed directly on plates using M-PER (Pierce Biotech. Inc., Rockford, Ill.) protein lysis buffer containing protease inhibitor cocktail (Roche) after three washes with ice cold PBS. CF bronchial brushings were transferred to lysis buffer. For immunoprecipitation, 500 μg/ml (cell culture)/50 μg/ml (bronchial brushings) total protein extracts were incubated with 50 μl of protein A/G agarose beads (Santa Cruz Biotechnology Inc., Santa Cruz, Calif.) for 3 hours at 4° C. After preclearing, 5 μg of respective primary antibody or pre-immune sera (negative control) was added to each tube. After 1 hour, protein A/G agarose beads (50 μL) were added to each tube and tubes were incubated overnight at 4° C. Beads were washed once with lysis buffer (20 mM Tris-HC1 [pH 7.6], 150 mM NaCl, 0.5% Triton X-100 and 10 μM phenylmethylsulfonyl fluoride [PMSF]) followed with two washes with phosphate buffer saline (PBS). The beads were suspended in Laemmli's sample buffer (30 μL) containing β-mercaptoethanol, vortexed for 1 minute, resolved by 4-10% SDS-PAGE and transferred to a 0.4-μm pore size nitrocellulose membrane.

In the next assay the target is Hsc70 (human, UniProt P11142 2-646). The experiment in a line: co-immunoprecipitation from bronchial brushings of ΔF508 CF subjects (IP gp78, immunoblot Hsc70). How it is done: as §1

The text below walks through data of patent US20100222408A1 (Johns Hopkins, published 2010).

T1 sequence (P55072 2-806 limits assumed): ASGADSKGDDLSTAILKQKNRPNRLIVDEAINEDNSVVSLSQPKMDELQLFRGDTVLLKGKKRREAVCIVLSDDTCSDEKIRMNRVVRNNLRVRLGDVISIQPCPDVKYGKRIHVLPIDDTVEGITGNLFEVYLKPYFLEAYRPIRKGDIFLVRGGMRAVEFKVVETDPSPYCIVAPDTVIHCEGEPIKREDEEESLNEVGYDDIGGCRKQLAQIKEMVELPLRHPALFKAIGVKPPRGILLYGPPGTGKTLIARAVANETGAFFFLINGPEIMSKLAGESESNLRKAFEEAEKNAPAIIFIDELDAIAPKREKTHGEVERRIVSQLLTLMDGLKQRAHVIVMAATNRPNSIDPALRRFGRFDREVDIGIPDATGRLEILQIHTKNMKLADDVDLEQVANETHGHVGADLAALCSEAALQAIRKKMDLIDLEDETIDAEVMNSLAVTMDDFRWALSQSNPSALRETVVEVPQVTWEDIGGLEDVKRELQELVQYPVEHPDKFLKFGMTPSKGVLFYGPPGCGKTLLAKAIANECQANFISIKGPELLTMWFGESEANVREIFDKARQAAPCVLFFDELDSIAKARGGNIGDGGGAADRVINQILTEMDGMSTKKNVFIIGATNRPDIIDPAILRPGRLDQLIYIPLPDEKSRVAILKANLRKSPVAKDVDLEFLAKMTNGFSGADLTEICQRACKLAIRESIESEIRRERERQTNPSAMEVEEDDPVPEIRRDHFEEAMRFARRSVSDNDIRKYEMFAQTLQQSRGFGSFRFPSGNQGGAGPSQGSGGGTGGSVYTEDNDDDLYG
Sequence of Hsc70 (P11142 2-646 limits assumed): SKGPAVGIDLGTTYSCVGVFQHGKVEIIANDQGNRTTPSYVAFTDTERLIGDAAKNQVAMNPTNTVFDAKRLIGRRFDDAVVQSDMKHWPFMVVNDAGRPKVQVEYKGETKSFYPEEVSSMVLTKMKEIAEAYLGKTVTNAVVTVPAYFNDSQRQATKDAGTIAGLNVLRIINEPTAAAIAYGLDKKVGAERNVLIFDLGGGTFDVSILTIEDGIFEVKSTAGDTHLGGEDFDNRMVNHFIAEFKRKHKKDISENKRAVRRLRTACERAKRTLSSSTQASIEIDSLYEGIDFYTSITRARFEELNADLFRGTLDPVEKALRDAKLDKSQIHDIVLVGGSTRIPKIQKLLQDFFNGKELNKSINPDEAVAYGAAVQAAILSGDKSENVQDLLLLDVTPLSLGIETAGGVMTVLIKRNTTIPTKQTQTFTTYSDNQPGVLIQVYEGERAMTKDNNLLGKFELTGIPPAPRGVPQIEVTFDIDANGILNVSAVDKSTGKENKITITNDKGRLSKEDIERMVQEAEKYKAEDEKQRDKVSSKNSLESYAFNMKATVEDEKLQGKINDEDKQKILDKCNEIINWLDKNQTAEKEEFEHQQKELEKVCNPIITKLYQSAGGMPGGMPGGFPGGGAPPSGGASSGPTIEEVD

B1: gp78 (enzyme, human, UniProt Q9UKV5 1-643, looked up)
chain: MPLLFLERFPWPSLRTYTGLSGLALLGTIISAYRALSQPEAGPGEPDQLTASLQPEPPAPARPSAGGPRARDVAQYLLSDSLFVWVLVNTACCVLMLVAKLIQCIVFGPLRVSERQHLKDKFWNFIFYKFIFIFGVLNVQTVEEVVMWCLWFAGLVFLHLMVQLCKDRFEYLSFSPTTPMSSHGRVLSLLVAMLLSCCGLAAVCSITGYTHGMHTLAFMAAESLLVTVRTAHVILRYVIHLWDLNHEGTWEGKGTYVYYTDFVMELTLLSLDLMHHIHMLLFGNIWLSMASLVIFMQLRYLFHEVQRRIRRHKNYLRVVGNMEARFAVATPEELAVNNDDCAICWDSMQAARKLPCGHLFHNSCLRSWLEQDTSCPTCRMSLNIADNNRVREEHQGENLDENLVPVAAAEGRPRLNQHNHFFHFDGSRIASWLPSFSVEVMHTTNILGITQASNSQLNAMAHQIQEMFPQVPYHLVLQDLQLTRSVEITTDNILEGRIQVPFPTQRSDSIRPALNSPVERPSSDQEEGETSAQTERVPLDLSPRLEETLDFGEVEVEPSEVEDFEARGSRFSKSADERQRMLVQRKDELLQQARKRFLNKSSEDDAASESFLPSEGASSDPVTLRRRMLAAAAERRLQKQQTS
notes: also called AMFR; AMFR/gp78
For B1, the binding result (in assay [1]; with Hsc70) was “no binding” each time.
